Results reported in US20210292414A1 (H LUNDBECK A S, published 2021).
Read-outs that look alike come from different tables or passages of the source. Blank lines part the entries; values can stand above or below the binder they belong to.

Tests used:
Assay in all cases: BLI (Octet384RED)
[1] = molecular target: T1, Sortilin SORTECDBAP_hB12390 (human/tetraodon chimera)
T1 construct: Shuffle construct: chimeric human/tetraodon Sortilin ECD with BAP tag
T1 chain: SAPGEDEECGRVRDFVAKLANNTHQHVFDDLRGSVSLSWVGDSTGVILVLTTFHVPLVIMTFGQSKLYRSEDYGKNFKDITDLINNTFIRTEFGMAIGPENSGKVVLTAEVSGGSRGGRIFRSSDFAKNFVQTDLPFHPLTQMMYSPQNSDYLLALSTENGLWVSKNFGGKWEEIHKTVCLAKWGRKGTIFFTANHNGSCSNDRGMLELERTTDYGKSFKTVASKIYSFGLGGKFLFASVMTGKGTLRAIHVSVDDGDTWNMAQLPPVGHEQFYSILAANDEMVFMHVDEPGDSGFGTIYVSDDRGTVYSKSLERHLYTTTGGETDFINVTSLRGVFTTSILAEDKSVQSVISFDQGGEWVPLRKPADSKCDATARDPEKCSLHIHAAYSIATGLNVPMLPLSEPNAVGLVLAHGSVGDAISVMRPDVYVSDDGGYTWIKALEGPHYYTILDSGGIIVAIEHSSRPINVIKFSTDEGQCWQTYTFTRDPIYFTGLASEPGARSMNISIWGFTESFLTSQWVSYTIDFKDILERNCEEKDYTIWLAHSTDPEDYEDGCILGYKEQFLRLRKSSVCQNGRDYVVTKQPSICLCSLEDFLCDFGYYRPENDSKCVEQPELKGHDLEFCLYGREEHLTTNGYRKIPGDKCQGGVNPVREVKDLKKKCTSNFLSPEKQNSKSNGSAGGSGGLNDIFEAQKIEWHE

hBack [2] = molecular target: T2, hBack
T2 chimeric human/tetraodon Sortilin extracellular region, BAP tag: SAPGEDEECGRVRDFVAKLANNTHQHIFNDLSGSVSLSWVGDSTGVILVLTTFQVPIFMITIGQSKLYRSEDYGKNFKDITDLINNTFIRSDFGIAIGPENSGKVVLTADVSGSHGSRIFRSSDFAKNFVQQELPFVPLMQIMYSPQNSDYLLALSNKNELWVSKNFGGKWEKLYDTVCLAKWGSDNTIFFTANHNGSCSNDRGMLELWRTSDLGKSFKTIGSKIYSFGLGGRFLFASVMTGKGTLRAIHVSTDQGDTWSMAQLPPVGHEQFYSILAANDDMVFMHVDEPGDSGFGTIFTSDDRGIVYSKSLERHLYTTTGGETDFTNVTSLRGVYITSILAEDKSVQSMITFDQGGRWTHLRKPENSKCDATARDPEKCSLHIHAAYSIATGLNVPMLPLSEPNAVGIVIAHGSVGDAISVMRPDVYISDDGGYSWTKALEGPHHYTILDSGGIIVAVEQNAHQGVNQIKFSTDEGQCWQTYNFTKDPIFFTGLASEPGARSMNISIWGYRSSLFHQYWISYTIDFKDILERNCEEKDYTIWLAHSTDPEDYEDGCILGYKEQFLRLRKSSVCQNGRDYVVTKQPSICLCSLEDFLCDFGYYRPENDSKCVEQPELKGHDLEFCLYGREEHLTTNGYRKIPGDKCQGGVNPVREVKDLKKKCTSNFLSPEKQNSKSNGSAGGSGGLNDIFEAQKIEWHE

[3] = molecular target: T3, Sortilin SORTECDBAP_tetra (tetraodon)
T3 construct: Fully tetraodon Sortilin ECD with BAP tag; also called tetraodon; tetraodon Sortilin
T3 chain: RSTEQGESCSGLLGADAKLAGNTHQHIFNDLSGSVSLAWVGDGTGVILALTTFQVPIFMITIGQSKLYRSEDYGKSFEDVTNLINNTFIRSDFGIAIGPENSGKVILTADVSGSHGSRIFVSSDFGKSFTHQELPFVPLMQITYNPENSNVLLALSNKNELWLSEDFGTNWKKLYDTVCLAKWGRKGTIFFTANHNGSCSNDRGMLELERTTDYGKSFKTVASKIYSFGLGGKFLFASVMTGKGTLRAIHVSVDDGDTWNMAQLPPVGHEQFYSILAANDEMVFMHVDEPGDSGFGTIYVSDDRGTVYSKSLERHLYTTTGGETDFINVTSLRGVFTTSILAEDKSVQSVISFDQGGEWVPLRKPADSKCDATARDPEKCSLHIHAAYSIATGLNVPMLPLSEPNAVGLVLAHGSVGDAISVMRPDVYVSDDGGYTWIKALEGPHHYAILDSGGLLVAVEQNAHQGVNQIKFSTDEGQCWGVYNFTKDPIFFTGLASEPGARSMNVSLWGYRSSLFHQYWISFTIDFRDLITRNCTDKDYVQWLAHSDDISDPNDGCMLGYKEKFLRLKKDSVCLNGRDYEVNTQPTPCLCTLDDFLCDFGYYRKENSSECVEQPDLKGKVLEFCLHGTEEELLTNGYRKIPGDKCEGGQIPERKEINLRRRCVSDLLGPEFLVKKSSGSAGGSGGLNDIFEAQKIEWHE

[4] = molecular target: T4, Sortilin SORTECDBAP_hB01-05 (human/tetraodon chimera)
T4 construct: Shuffle construct: chimeric human/tetraodon Sortilin ECD with BAP tag
T4 chain: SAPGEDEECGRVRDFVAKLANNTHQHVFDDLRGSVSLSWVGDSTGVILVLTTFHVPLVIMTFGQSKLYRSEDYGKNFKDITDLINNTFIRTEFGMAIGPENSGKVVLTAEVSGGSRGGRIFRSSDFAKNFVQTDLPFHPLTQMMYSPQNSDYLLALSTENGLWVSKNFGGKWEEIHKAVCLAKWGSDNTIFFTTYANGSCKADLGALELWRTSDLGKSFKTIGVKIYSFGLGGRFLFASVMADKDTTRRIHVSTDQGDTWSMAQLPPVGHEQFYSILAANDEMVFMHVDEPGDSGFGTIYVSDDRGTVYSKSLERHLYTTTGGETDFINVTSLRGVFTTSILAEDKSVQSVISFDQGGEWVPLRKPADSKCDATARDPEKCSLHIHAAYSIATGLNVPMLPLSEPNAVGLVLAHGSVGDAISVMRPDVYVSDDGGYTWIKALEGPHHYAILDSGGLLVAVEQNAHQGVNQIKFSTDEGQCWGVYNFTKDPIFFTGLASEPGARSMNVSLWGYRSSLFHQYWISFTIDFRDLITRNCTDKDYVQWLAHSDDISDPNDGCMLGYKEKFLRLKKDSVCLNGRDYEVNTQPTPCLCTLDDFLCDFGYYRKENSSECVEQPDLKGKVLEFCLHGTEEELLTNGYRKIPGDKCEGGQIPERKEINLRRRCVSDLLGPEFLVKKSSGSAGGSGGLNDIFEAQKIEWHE

[5] = molecular target: T1, Sortilin SORTECDBAP_hB12390
hBack [6] = molecular target: T2, hBack
[7] = molecular target: T3, Sortilin SORTECDBAP_tetra
[8] = molecular target: T4, Sortilin SORTECDBAP_hB01-05

EC50 [1]: 3.55 ng/mL | EC50 (hBack [2]): 4 ng/mL | binding result [3]: no binding | binding result [4]: no binding
B1: Antibody 6003-423 (antibody, human IgG1, V domains shown)
VH: EVQLLESGGGLVQPGGSLRLSCEASGFTFRSYVMSWVRQAPGKGLEWVSTISGGGGNTNYTDSVKGRFTISRDNSKNTLYLQMNSLRAEDTAVYYCAKNWGSGFDYWGQGTLVTVSS
VL: EIVLTQSPATLSLSPGERATLSCRASQSVSSYLAWYQQKPGQAPRLLIYDASNRATGIPARFSGSGSGTDFTLTISSLEPEDFAVYYCQQRSNWLIFTFGPGTKVDIK

EC50 [5]: 11.4 ng/mL | EC50 (hBack [6]): 2.62 ng/mL | binding result [7]: no binding | binding result [8]: no binding
B2: Antibody 6003-936 (antibody, human IgG1, V domains shown)
VH: EVQLVQSGAEVKKPGESLKISCKGSGYIFTSFWIGWVRQMPGKGLEWMGIIYPGDSDTRYSPSFQGQVTISADKSISTAYLQWSSLKASDTAMYYCARHSRGSFWYGAFQHWGQGTLVTVSS
VL: EIVLTQSPDFQSVTPKEKVTITCRASQSIGSSLHWYQQKPDQSPKLLIKYASQSFSGVPSRFSGSGSGTDFTLTINSLEAEDAAAYYCHQSSSLPHTFGPGTKVDIK

EC50 [1]: 3.16 ng/mL | EC50 (hBack [2]): 2.54 ng/mL | binding result [3]: no binding | binding result [4]: no binding
B3: Antibody 6003-471 (antibody, V domains shown)
VH: QVQLVQSGAEVKKPGSSVKVSCKASGGTFSNYAISWVRQAPGQGLEWMGRIIPIFGIANYAQKFQGRVTITADKSTSTAYMELSSLRSEDTAVYYCARDRRGFSGYEVFDYWGQGTLVTVSS
VL: DIQMTQSPSSLSASVGDRVTITCRASQGISSWLAWYQQKPEKAPKSLIYATSSLQSGVPSRFSGSGSGTDFTLTISSLQPEDFATYYCQQYNSYPITFGQGTRLEIK
